Source: paper PMC4310633 (Biochemistry, 2014)

B1: ligand binding domain (LBD) of the GluN2A subunit of the NMDA receptor (domain or fragment)
chain: not shown
B2: ligand binding domain (LBD) of the GluN1 subunit of the NMDA receptor (domain or fragment)
chain: not shown

Target: the molecule itself
Experiment: AUC

Protein	stoichiometry N
B1	2
B2	2
